Source: the supplement of paper PMC12042874
± gives the uncertainty stated by the source.

experiment: amyloid nucleation score (Sup35N fusion, yeast selection) (log enrichment); library NNK2; higher = more nucleation; inactive = no reads after selection
In short: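 After 24 hours of induction with 100 μM copper sulfate, psi-negative yeast expressing peptides of 20 random codons fused to Sup35N were grown for 7 days at 30°C on medium lacking adenine and uracil. Input and output plasmid inserts were sequenced with Illumina, and sequences with under 100 input reads were discarded. Scores for nucleation are the DiMSum log enrichment of output over input reads, centred on the mode score of non-aggregating sequences.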

Substance	amyloid nucleation score
TTMIAVVRFTRD	2.07 ± 0.29
TTNSFINLVYMNMHK	6.63 ± 0.075
TTRAKHVHWYELHNVFMLQL	7.483 ± 0.054
TTSLSYFLIQKALLWKVEYH	-1.38 ± 0.38
TTTCLMLLRVNFNTALLIRN	-1.41 ± 0.49
TTYSRS	-1.26 ± 0.62
TVCFDSLNHITSFIRGRFSL	inactive
TVFKYLTFLGSIVFSTVPLV	0.088 ± 0.56
TVFLTGRFCWVFPRSCYLSY	-0.758 ± 0.33
TVFSK	-0.998 ± 0.76
TVHRLRNVCLL	2.51 ± 0.25
TVLGRGLILWDVGGLSE	-0.906 ± 0.34
TVMGPVILTCVGIAVTSASS	3.86 ± 0.1
TVMNVDWFKDYLLTNFVCSD	0.063 ± 0.36
TVNCSTCM	-0.562 ± 0.19
TVSGDTSRRSRMNFSFYMQR	-0.266 ± 1.1
TVSKDDMTALVSAIMASNRW	1.06 ± 0.32
TVSLYIDYPSVLGFPWSY	-0.952 ± 0.55
TVSRTVCVASYCLSSEKTSG	-0.899 ± 0.31
TVSVNLYNFVLQTSY	4.55 ± 0.069
TVVFYNNIIFGFDFSSAKWL	6.21 ± 0.067
TVWRARLGSPCGFLCVDRSW	0.414 ± 0.53
TVWYCALSL	10.61 ± 0.07
TWGPWTLMSVLSCGVYGSHG	4.3 ± 0.084
TWGQVII	-0.465 ± 1
TWGVLFAYSIEDCVGINYLG	0.73 ± 0.18

Substance	amyloid nucleation score
TWKVDF	inactive
TWMGVHVRSYHQHC	0.878 ± 0.42
TWVGWS	-0.841 ± 0.79
TYCKFVNFYESVKER	6.753 ± 0.037
TYDWEFFNDYYQM	0.161 ± 0.77
TYFVVGDSLSVIFSGRNWGV	5.408 ± 0.043
TYGHDKLRVSNIEHQLPGRA	0.306 ± 0.64
TYGLVTRTGAV	0.247 ± 0.43
TYICT	-0.59 ± 0.24
TYLKHVRKS	1.11 ± 0.24
TYSGEIKL	inactive
TYVHDPGFPLWLDMAKRFGL	0.581 ± 0.5
TYVHNKVCKNACNFSTLGPC	0.143 ± 0.8
TYVLSGEGEIKA	1.54 ± 0.33
TYVYNGAYVVGNWL	-0.964 ± 0.54
VAFNGYLY	-0.89 ± 0.48
VAGDLGGRSELLARIRSGHA	inactive
VANEDDRYYTYGADWERLLL	0.844 ± 0.56
VARVWEWFCVCWTWDSELVG	3.69 ± 0.057
VATWGDQVLRMRWAALRLCV	5.96 ± 0.079
VAVISDWGWQNWMSVVGVGH	inactive
VAWITLMIPHIYFQSGILWD	-1 ± 0.25
VAYLTFLWNQYAVRARKRLP	-0.085 ± 0.35
VCCAFLCASRAVVYTGKDMH	10.18 ± 0.027
VCCRDKMSHCRSAALNMVLL	3.49 ± 0.12
VCDVDTNVVTSNWTSCLFRK	inactive

Substance	amyloid nucleation score
VCFGEQT	0 ± 0.21
VCFRYGEYLNVKIF	-0.789 ± 0.63
VCFVM	-0.016 ± 0.79
VCRDYGVMSMRRDWLCRMSL	0.391 ± 0.65
VCRNDRLVWCKLGVEFSGVA	1.31 ± 0.26
VCSMEGYEAVYSRRRELLWS	0.08 ± 0.36
VCVFTDLGCRY	-0.493 ± 1.1
VCVQDRLRC	0.518 ± 0.5
VCYNT	0.833 ± 0.74
VDCGFRRLFVFTNSIYCVCR	5.321 ± 0.053
VDDWSADIMKGDRVLYS	inactive
VDFFCQPGTCVQEVEDLLVL	-0.166 ± 0.35
VDFTCLYSVNFRIHVYISDM	2.71 ± 0.2
VDISNFTVCRHAIKDLTFRV	0.149 ± 0.41
VDREKKEKTLVDGTQMVTCL	1.12 ± 0.32
VDTELKVNSYRPGWTEHSRT	0.738 ± 0.21
VDVHIIIMKPDSWVCPNRCS	inactive
VEADVYDRDVTSWRMLYLYK	0.174 ± 0.4
VEALSISMQLYYRSLVAG	-0.066 ± 1
VEGLNCVLSDNKVANGS	-0.791 ± 0.44
VEGLQ	inactive
VESLFGYW	-0.889 ± 1.1
VESMILSRYLHHILRGNSLC	-1.15 ± 1.1
VFACLNVLSLMNEDFFVMSD	-0.708 ± 0.54
VFDEVVVDTLKWWSCVSAGI	-0.484 ± 0.54
VFFGLWRIVRGETSHFYRDE	-0.835 ± 0.27

Substance	amyloid nucleation score
VFFNLDSWSSKVCDSKLMVM	-0.373 ± 0.54
VFIMGPTS	3.96 ± 0.092
VFLSRVFNSF	-0.317 ± 0.79
VFNILFSM	9.098 ± 0.06
VFNLL	inactive
VFPMVFTKGNANVCHI	0.886 ± 0.58
VFRFNFLRGLKIQVLSRFGW	-0.067 ± 1.1
VFVSCYYAYLLRDTTNFYVG	inactive
VFVSWILFTVSPFIIRYRVN	-1.72 ± 0.75
VFWGM	-1.35 ± 0.49
VFWLNGWYCYI	3.65 ± 0.056
VFYTFMTSALGIRVTRSSCL	1.12 ± 0.22
VFYVCFKLQIIDGMLNWCKG	7.237 ± 0.032
VGDVKVWTVRSSTNATEKFL	0.551 ± 0.27
VGEYLCEPATLY	-0.018 ± 1.1
VGFGVFVV	0.213 ± 0.24
VGFHEDNMEVR	inactive
VGHQVDCHTSVRYYILYAFF	7.839 ± 0.063
VGICFDNRMVTWHLSDRQSP	3.58 ± 0.072
VGKRNLISMVGYPYD	-1.09 ± 0.39
VGLFNVTLAFVLYGSSRLVL	4.12 ± 0.057
VGNLRGYVKLVISFSVLRHK	inactive
VGPMEGGYPGVAQLLGEKRN	2.3 ± 0.2
VGSGRLTWT	0.917 ± 0.28
VGSSEAFCYGLTDFKRENLA	inactive
VGTSWLFLMV	inactive

Substance	amyloid nucleation score
VGTTNQYDEPTTGLSHC	0.953 ± 0.32
VGWKTGDRPSEMSSSWDLNG	-0.093 ± 0.37
VGYFLSPMTVQLN	inactive
VGYIMYIYDGYRVVFVGYYR	0.217 ± 0.65
VHCSVGNINKDVSCTVVRP	0.892 ± 0.47
VHICRTNDG	0.632 ± 0.44
VHIMEDVMRRFCDRCTCRTW	0.562 ± 0.44
VHIYQTPPLKCIWSMDKTPA	-0.442 ± 1
VHLNTFATFMGWLTDSWLGV	inactive
VHLTGSCHPNYSGVGKCMVI	0.168 ± 0.49
VHPGMNLDMSNACSAFVRTW	-0.631 ± 1
VHQYDSVSAVHADCMG	-1.27 ± 0.53
VHRLRMGRVWFDKDSDVVGK	0.148 ± 1
VHRWSDTYTTTYM	-0.535 ± 0.33
VHSNCSLNGPCMPMCVRRRW	0.302 ± 0.56
VHTARLTWDLGYSVRCYYWT	6.47 ± 0.074
VICVLSYADCSKLGWGHSLT	8.868 ± 0.043
VIGRCDSL	inactive
VIIFFFVFRCMPDLIQVYCV	-1.72 ± 1
VILYGFNKVMECSTYVVV	-0.804 ± 1.1
VIMGFFGITFGWCKRSEVHE	2.49 ± 0.11
VINRMCIVWPYMSSYWEWNV	9.126 ± 0.06
VIPKHESISILFPAVYPPFE	0.031 ± 0.23
